Assay [1] deals with CD24 on tumor cells (MCF7, SKOV3, HT55, huCD24-MDA-MB-231, CD24-SKOV3) (human) (UniProt P25063). As to the kind of experiment: flow cytometry on SKOV3 cells (MFI); fit value given for a flat control curve; unit inferred, unit from the x axis label. Background: In flow cytometry, cells or beads pass a laser one at a time.
Assay [2] shares this target. As to the kind of experiment: flow cytometry on MCF7 cells (MFI); fit value given for a flat control curve; unit inferred, unit from the x axis label.
Assay [3] has the same target. As to the kind of experiment: flow cytometry on huCD24-MDA-MB-231 cells (MFI); fit value given for a flat control curve; unit inferred, unit from the x axis label.
For assay [4] the target is unchanged. Put plainly: flow cytometry on SKOV3 cells (MFI).
Assay [5] concerns the target T1, CD24 on tumor cells (MCF7, SKOV3, HT55, huCD24-MDA-MB-231, CD24-SKOV3) (human, UniProt P25063 27-59).
T1 construct: whole, on cells; The cell line of each result is named under assay
T1 chain (looked up): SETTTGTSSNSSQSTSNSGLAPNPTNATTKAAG
As to the kind of experiment: flow cytometry on huCD24-MDA-MB-231 cells (MFI); table under the graph prints no unit, unit from the x axis label.

The target in assay [6] is T2, human CD24 protein (ACRO) (human, UniProt P25063 27-59).
T2 construct: also called analyte human CD24 protein
T2 chain (looked up): T1 chain (looked up)
As to the kind of experiment: BLI (ForteBio Octet RED96e), antibody immobilised, human CD24 protein as analyte. Here is the method: ForteBio […] (BLI) was used to detect the affinity of humanized antibodies. The sample to be tested (solidified) was diluted to 20 μg/mL with 0.02% PBST (buffer). The analyte human CD24 protein (ACRO) was diluted to 100 nM with 0.02% PBST (buffer) as the initial concentration, and then diluted by double gradient for 7 gradients starting from this concentration, and a negative control (buffer) was performed.
The molecular interaction analysis instrument (ForteBio; Octet RED96e) was operated, and 200 μL of curing buffer (0.02% PBST) was added to a pre-wetted plate, and the sensor was pre-wetted for 5-10 min. Diluted samples and other reagents for assay were added into wells in the sample plate corresponding to the pre-wetted sensor.
For orientation: Biolayer interferometry detects binding as a change in optical thickness at a sensor tip.

The target of assay [7] is T1, CD24 on tumor cells (MCF7, SKOV3, HT55, …). Put plainly: flow cytometry on SKOV3 cells (MFI); table under the graph prints no unit, unit from the x axis label. Here is the method: (§1) The commercial antibody SN3 (ABCOM; ab134375) and IgG1 isotype control were used as control. MCF7, SKOV3, HT55 or huCD24-MDA-MB-231 cells were taken and transferred to a centrifuge tube, and centrifuged at 1000 rpm for 5 min. 100 μL of MCF7, SKOV3, HT55, or huCD24-MDA-MB-231 cells were spread in a 96 U plate, respectively, and washed twice with PBS. 100 μL of the fusion supernatant was added, and diluted for 8 gradients. Cells were incubated at 4° C. for 60 minutes, and then washed twice with excess FACS buffer. Cells were resuspended in 100 μL of FACS buffer and sheep anti-mouse secondary antibody-FITC (ABCOM; ab6785) was added to the samples, incubated for 30 minutes and washed twice with excess FACS buffer. Cells were fixed in fixation buffer and subsequently analyzed by flow cytometry.
(§2) The binding activity of the chimeric antibodies CH-01 and CH-02 and tumor cells was detected according to the method of Example 6.

Assay [8] has the same target. As to the kind of experiment: flow cytometry on MCF7 cells (MFI); table under the graph prints no unit, unit from the x axis label. As for the experimental part: as §1, §2
For assay [9] the target is unchanged. As to the kind of experiment: flow cytometry on MCF7 cells (MFI). As for the experimental part:
as §1

Assay [10] has the same target. As to the kind of experiment: flow cytometry on MCF7 cells (MFI).

The text below walks through data of patent publication US20250263499A1 (SHENGHE CHINA BIOPHARMACEUTICAL, published 2025).

In general, EC50 refers to the midpoint of the concentration-response curve. What is called EC50 (read off the curve) is the midpoint of the concentration-response curve. A low value points to a more potent agent. One may read the Kd as the constant that tells how readily two partners part at equilibrium. A lower Kd goes with higher affinity.

Residue numbers refer to the chain shown, from its start.

For the molecule IgG1 isotype control (antibody), the values for the EC50 in assay [1], in assay [2] and in assay [3] were 49.7 µg/mL, 0.142 µg/mL and 3.49 µg/mL, respectively.
The molecule “commercial antibody SN3 (ABCOM; ab134375)” showed an EC50 (read off the curve) in assay [4] of 2 µg/mL.

B1: chimeric antibody CH-02 (antibody, human IgG1, kappa, V domains shown)
VH: EVQLQESGPDLVKPSQSLSLTCTVTGYSITSGYTWHWIRQFPGNKLEWMGHIQYTGNTKYNPSLESRISITRETSKNQFFLQLNSVTTEDTGTYYCARGSTNSNDYWGQGTSVTVSS
VL: DIVMTQSPSSLAVSVGEKVTVSCKSSQSLLYSNDQKNYLAWYQQKPGQSPKLLIYWASTRESGVPDRFTGSGSGTDFTLTITSVKAEDLAVYYCQQYFIYPLTFGAGTKLELKR
notes: ms-02 variable regions on a human IgG framework, expressed in CHO cells
In assay [5], B1 had an EC50 of 4.03 µg/mL. The Kd in [6] amounted to 11.9 nM.

B2: chimeric antibody CH-01 (antibody, human IgG1, kappa, V domains shown)
VH: QIQLVQSGPELKKPGETVKISCKASGYIFTDYAIHWVKQAPGKGLKWMGFINTATGEPTYADDFKGRFAFSLETSASTAYLQVNSLKNEDTATYFCTSGVHWGQGTTLTVSS
VL: QIVLTQSPAIMSASLGEEITLTCSASSSVSSMHWYQQKSGTSPKLLIYSTSNLASGVPSRFSGSGSGTFYSLTISSVESEDAADYYCHHWTSYMYTFGGGTKLEIKR
notes: ms-01 variable regions on a human IgG framework, expressed in CHO cells
Take B2: binding in assay [6] was characterised by a dissociation constant (Kd) of 8.08 nM. The EC50 was 1.2 µg/mL in [7] and 1.69 µg/mL in assay [8].

B3: murine anti-CD24 antibody ms-01 (antibody, V domains shown)
VH: B2 VH
VL: QIVLTQSPAIMSASLGEEITLTCSASSSVSSMHWYQQKSGTSPKLLIYSTSNLASGVPSRFSGSGSGTFYSLTISSVESEDAADYYCHHWTSYMYTFGGGTKLEIK
notes: Mouse antibody from a hybridoma
As to B3, in assay [9], the “EC50 (read off the curve)” value was about 2 µg/mL.

B4: humanized antibody hu-01-L2H3 (antibody, human IgG1, kappa, V domains shown)
VH: QVQLVQSGSELKKPGASVKVSCKASGYIFTDYAIHWVKQAPGQGLEWMGFINTATGEPTYADDFKGRFVFSLDTSVSTAYLQISSLKAEDTAVYFCTSGVHWGQGTLVTVSS
VL: DIQMTQSPSTLSASVGDRVTITCSASSSVSSMHWYQQKPGKAPKLLIYSTSNLASGVPSRFSGSGSGTEYTLTISSLQPDDFATYYCHHWTSYMYTFGGGTKVEIKR
notes: Humanized from ms-01: light chain L2, heavy chain H3
With B4, the Kd in [6] turned out to be 9.03 nM.

B5: humanized antibody hu-01-L1H3 (antibody, human IgG1, kappa, V domains shown)
VH: B4 VH
VL: B4 VL with Y70F
notes: Humanized from ms-01: light chain L1, heavy chain H3
On to B5, for which the Kd in assay [6] amounted to 10 nM.

B6: humanized antibody hu-01-L2H2 (antibody, human IgG1, kappa, V domains shown)
VH: B4 VH with K38R
VL: B4 VL
notes: Humanized from ms-01: light chain L2, heavy chain H2
Take B6: in assay [6], the Kd was 10.5 nM.

B7: humanized antibody hu-01-L2H1 (antibody, human IgG1, kappa, V domains shown)
VH: B4 VH with K38R, F95Y, T97A, S98R
VL: B4 VL
notes: Humanized from ms-01: light chain L2, heavy chain H1
Consider B7, for which the binding result in [6] is given as “no binding (tested: 100 nM (highest analyte concentration))”.

B8: humanized antibody hu-01-L2H4 (antibody, human IgG1, kappa, V domains shown)
VH: B4 VH with E46K
VL: B4 VL
notes: Humanized from ms-01: light chain L2, heavy chain H4
In turn, B8 returned a Kd in assay [6] of 39.1 nM.

B9: humanized antibody hu-01-L1H4 (antibody, human IgG1, kappa, V domains shown)
VH: B4 VH with E46K
VL: B4 VL with Y70F
notes: Humanized from ms-01: light chain L1, heavy chain H4
In assay [6], B9 displayed a dissociation constant Kd of 48.2 nM.

B10: humanized antibody hu-01-L3H4 (antibody, human IgG1, kappa, V domains shown)
VH: B4 VH with E46K
VL: B4 VL with M4L, A42S
notes: Humanized from ms-01: light chain L3, heavy chain H4
In [6], B10 came in with a Kd of 41.2 nM.

B11: humanized antibody hu-01-L3H2 (antibody, human IgG1, kappa, V domains shown)
VH: B4 VH with K38R
VL: B4 VL with M4L, A42S
notes: Humanized from ms-01: light chain L3, heavy chain H2
As to B11, in assay [6], the Kd was 8.29 nM. Compared with the last molecule, the Kd is about 5-fold lower.

B12: humanized antibody hu-01-L3H3 (antibody, human IgG1, kappa, V domains shown)
VH: B4 VH
VL: B4 VL with M4L, A42S
notes: Humanized from ms-01: light chain L3, heavy chain H3
In assay [6], B12 came in with a Kd of 12.4 nM.

B13: humanized antibody hu-01-L1H2 (antibody, human IgG1, kappa, V domains shown)
VH: B4 VH with K38R
VL: B4 VL with Y70F
notes: Humanized from ms-01: light chain L1, heavy chain H2
The molecule B13 showed a Kd in assay [6] of 5.58 nM. Against the preceding molecule, the Kd is about 2.2-fold lower.

B14: hu-02-L1H8 (antibody, human IgG1, kappa, V domains shown)
VH: EVQLQESGPGLVKPSQTLSLTCTVSGYSITSGYTWHWIRQFPGNKLEWMGHIQYTGNTKYNPSLESRITISRDTSKNQFSLKLSSVTAADTATYYCARGSTNSNDYWGQGTLVTVSS
VL: DIVMTQSPDSLAVSLGERATINCKSSQSLLYSNDQKNYLAWYQQKPGQPPKLLIYWASTRESGVPDRFSGSGSGTDFTLTISSLQAEDVAVYYCQQYFIYPLTFGGGTKLELKR
notes: also called humanized antibody hu-02-L1H8
For the molecule B14, the binding result in assay [10] is recorded as “binds”.

B15: humanized antibody hu-02-L1H1 (antibody, human IgG1, kappa, V domains shown)
VH: B14 VH with E1Q, F41H, N44K, K45G, M49I, I68V, R72V, T93V
VL: B14 VL
notes: Humanized from ms-02: light chain L1, heavy chain H1
In turn, B15 came in with an EC50 in assay [5] of 2.08 µg/mL. The molecule also returned a Kd in assay [6] of 62.7 nM.

B16: humanized antibody hu-02-L1H7 (antibody, human IgG1, kappa, V domains shown)
VH: B14 VH with M49I
VL: B14 VL
notes: Humanized from ms-02: light chain L1, heavy chain H7
On to B16, for which the EC50 in assay [5] amounted to 3.42 µg/mL. The Kd in assay [6] came out at 20.5 nM.
